In patent publication US20130012690:

Molecular target: Tfl-bZip (GCN4 residues 226-281, leucine zipper leucines replaced with 5,5,5-trifluoroleucine) Leu to 5,5,5-trifluoroleucine in the GCN4-p1 dimerization domain (four d-position leucines) (UniProt P03069)
Experiment: EMSA

Chain of Tfl-bZip (GCN4 residues 226-281, leucine zipper leucines replaced with 5,5,5-trifluoroleucine) Leu to 5,5,5-trifluoroleucine in the GCN4-p1 dimerization domain (four d-position leucines) (P03069 whole entry, the tested form may be a part): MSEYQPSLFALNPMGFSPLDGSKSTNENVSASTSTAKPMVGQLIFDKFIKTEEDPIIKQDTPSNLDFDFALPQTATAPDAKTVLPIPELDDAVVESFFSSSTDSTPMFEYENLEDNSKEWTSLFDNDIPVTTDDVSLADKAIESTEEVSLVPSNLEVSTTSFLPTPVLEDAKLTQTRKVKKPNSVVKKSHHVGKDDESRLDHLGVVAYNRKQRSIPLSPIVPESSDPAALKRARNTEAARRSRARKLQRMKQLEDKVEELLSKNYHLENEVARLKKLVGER

Sequence “TGGAGATGACGTCATCTCCT (double strand) [CREB site oligonucleotide]” has a Kd (densitometry, CD at 0 C also shows coil-to-helix transition on DNA binding) of 5.4 nM.
“GTGGAGATGACTCATCTCCGG (double strand) [AP-1 site oligonucleotide]” gave a Kd (densitometry of mobility shift assay) of 12.5 nM.
